# Results reported in article PMC2120494.
# Target: R-Ras or R-Ras(38V)
# Assay: co-IP
substance,measurement,value
"Raf-1 kinase, baculovirus-produced (from UniProt P04049 1-648) (enzyme)",percent of total Raf co-immunoprecipitated,10 to 20%
